According to the RNAGym collection of RNA variant scans (doi:10.7554/elife.80360):

B1: HDV Ribozyme (parent)
chain: GGCCGGCAUGGUCCCAGCCUCCUCGCUGGCGCCGGCUGGGCAACAUUCCGAGGGGACCGUCCCCUCGGUAAUGGCGAAUGGGACCCA

Variants of: B1
Assay: self-cleavage, relative activity (ratio to wild type); higher = more cleavage; co-transcriptional

| Variant | self-cleavage |
| --- | --- |
| GGCCGGCAUGGUCCCAGCCUCCUCGCUGGCGCCGGCUGGGCAACUUUCCGAGGGGACCGUCCCCUCGGUAGUGGCGAAUGGGACCCA | 0.872 |
| GGCCGGCAUGGUCCCAGCCUCCUCGCUGGCGCCGGCUGGGCAACUUUCCGAGGGGACCGUCCCCUCGGUAAUGGCGACUGGGACCCA | 0.13 |
| GGCCGGCAUGGUCCCAGCCUCCUCGCUGGCGCCGGCUGGGCAACUUUCCGAGGGGACCGUCCCCUCGGUAAUGGCGAAUGGGACCCC | 0.783 |
| GGCCGGCAUGGUCCCAGCCUCCUCGCUGGCGCCGGCUGGGCAACUUUGCGAGGGGACCGUCCCCUCGGUAAUGGCGAAUGGGACCCA | 0.739 |
| GGCCGGCAUGGUCCCAGCCUCCUCGCUGGCGCCGGCUGGGCAACUUUCCGAGGGGAGCGUCCCCUCGGUAAUGGCGAAUGGGACCCA | 0.831 |
| GGCCGGCAUGGUCCCAGCCUCCUCGCUGGCGCCGGCUGGGCAACUUUCCGAGGGGACCGUACCCUCGGUAAUGGCGAAUGGGACCCA | 0.928 |
| GGCCGGCAUGGUCCCAGCCUCCUCGCUGGCGCCGGCUGGGCAACUUUCCGAGGGGACCGUCGCCUCGGUAAUGGCGAAUGGGACCCA | 0.798 |
| GGCCGGCAUGGUCCCAGCCUCCUCGCUGGCGCCGGCUGGGCAACUUUCCGAGGGGACCGUCCGCUCGGUAAUGGCGAAUGGGACCCA | 0.63 |
| GGCCGGCAUGGUCCCAGCCUCCUCGCUGGCGCCGGCUGGGCAACUUUCCGAGGGGACCGUCCCCUCGGUAAUGGCGAAUGGGAGCCA | 0.332 |
| GGCCGGCAUGGUCCCAGCCUCCUCGCUGGCGCCGGCUGGGCAACUUUCCGAGGGGACCGUCCCCUCGGUAAUGGCGAAUGGGAUCCA | 0.623 |
| GGCCGGCAUGGUCCCAGCCUCCUCGCUGGCGCCGGCUGGGCAACUUUCCGAGGGGACCGUCCCCUCGGUAAUGGCGAAUGGGACUCA | 0.877 |
| GGCCGGCAUGGUCCCAGCCUCCUCGCUGGCGCCGGCUGGGCAACUUUCCGAGAGGACCGUCCCCUCGGUAAUGGCGAAUGGGACCCA | 0.997 |
| GGCCGGCAUGGUCCCAGCCUCCUCGCUGGCGCCGGCUGGGCAACUUUCCGAGGGGACCGUCCCCUCAGUAAUGGCGAAUGGGACCCA | 0.717 |
| GGCCGGCAUGGUCCCAGCCUCCUCGCUGGCGCCGGCUGGGCAACUUUCCGAGGGGACCGUCCCCUCCGUAAUGGCGAAUGGGACCCA | 0.719 |
| GGCCGGCAUGGUCCCAGCCUCCUCGCUGGCGCCGGCUGGGCAACUUUCCGAGGGGACCGUCCCCUCGCUAAUGGCGAAUGGGACCCA | 0.706 |
| GGCCGGCAUGGUCCCAGCCUCCUCGCUGGCGCCGGCUGGGCAACUUUCCGAGGGGACCGUCCCCUCGGUAAUAGCGAAUGGGACCCA | 0.616 |
| GGCCGGCAUGGUCCCAGCCUCCUCGCUGGCGCCGGCUGGGCAACUUUCCGAGGGGACCGUCCCCUCGGUAAUUGCGAAUGGGACCCA | 0.302 |
| GGCCGGCAUGGUCCCAGCCUCCUCGCUGGCGCCGGCUGGGCAACUUUCCGAGGGGACCGUCCCCUCGGUAAUGGCAAAUGGGACCCA | 0.578 |
| GGCCGGCAUGGUCCCAGCCUCCUCGCUGGCGCCGGCUGGGCAACUUUCCGAGGGGACCGUCCCCUCGGUAAUGGCCAAUGGGACCCA | 0.689 |
| GGCCGGCAUGGUCCCAGCCUCCUCGCUGGCGCCGGCUGGGCAACUUUCCGAGGGGACCGUCCCCUCGGUAAUGGCGAAUCGGACCCA | 0 |
| GGCCGGCAUGGUCCCAGCCUCCUCGCUGGCGCCGGCUGGGCAACUUUCCGAGGGGACCGUCCCCUCGGUAAUGGCGAAUGCGACCCA | 0.287 |
| GGCCGGCAUGGUCCCAGCCUCCUCGCUGGCGCCGGCUGGGCAACUUUCCGAGGGGACCGUCCCCUCGGUAAUGGCGAAUGUGACCCA | 0.277 |

| Variant | self-cleavage |
| --- | --- |
| GGCCGGCAUGGUCCCAGCCUCCUCGCUGGCGCCGGCUGGGCAACUUUCCGAGGGGACCGUCCCCUCGGUAAUGGCGAAUGGCACCCA | 0.0898 |
| GGCCGGCAUGGUCCCAGCCUCCUCGCUGGCGCCGGCUGGGCAACUCUCCGAGGGGACCGUCCCCUCGGUAAUGGCGAAUGGGACCCA | 0.665 |
| GGCCGGCAUGGUCCCAGCCUCCUCGCUGGCGCCGGCUGGGCAACUGUCCGAGGGGACCGUCCCCUCGGUAAUGGCGAAUGGGACCCA | 0.787 |
| GGCCGGCAUGGUCCCAGCCUCCUCGCUGGCGCCGGCUGGGCAACUUUCCGAGGGGACCGUCCCCGCGGUAAUGGCGAAUGGGACCCA | 0.615 |
| GGCCGGCAUGGUCCCAGCCUCCUCGCUGGCGCCGGCUGGGCAACUUUCCGAGGGGACCGUCCCCUCGGCAAUGGCGAAUGGGACCCA | 0.959 |
| GGCCGGCAUGGUCCCAGCCUCCUCGCUGGCGCCGGCUGGGCAACUUUCCGAGGGGACCGUCCCCUCGGGAAUGGCGAAUGGGACCCA | 0.855 |
| GGCCGGCAUGGUCCCAGCCUCCUCGCUGGCGCCGGCUGGGCAACUUUCCGAGGGGACCGUCCCCUCGGUAACGGCGAAUGGGACCCA | 1.02 |
| GGCCGGCAUGGUCCCAGCCUCCUCGCUGGCGCCGGCUGGGCAACAAUCCGAGGGGACCGUCCCCUCGGUAGUGGCGAAUGGGACCCA | 0.895 |
| GGCCGGCAUGGUCCCAGCCUCCUCGCUGGCGCCGGCUGGGCAACAAUACGAGGGGACCGUCCCCUCGGUAAUGGCGAAUGGGACCCA | 0.665 |
| GGCCGGCAUGGUCCCAGCCUCCUCGCUGGCGCCGGCUGGGCAACAAUCAGAGGGGACCGUCCCCUCGGUAAUGGCGAAUGGGACCCA | 0.665 |
| GGCCGGCAUGGUCCCAGCCUCCUCGCUGGCGCCGGCUGGGCAACAAUCCGAGGGGAGCGUCCCCUCGGUAAUGGCGAAUGGGACCCA | 0.617 |
| GGCCGGCAUGGUCCCAGCCUCCUCGCUGGCGCCGGCUGGGCAACAAUCCGAGGGGACGGUCCCCUCGGUAAUGGCGAAUGGGACCCA | 0.712 |
| GGCCGGCAUGGUCCCAGCCUCCUCGCUGGCGCCGGCUGGGCAACAAUCCGAGGGGACCGUACCCUCGGUAAUGGCGAAUGGGACCCA | 0.8 |
| GGCCGGCAUGGUCCCAGCCUCCUCGCUGGCGCCGGCUGGGCAACAAUCCGAGGGGACCGUCGCCUCGGUAAUGGCGAAUGGGACCCA | 0.289 |
| GGCCGGCAUGGUCCCAGCCUCCUCGCUGGCGCCGGCUGGGCAACAAUCCGAGGGGACCGUCCCCUAGGUAAUGGCGAAUGGGACCCA | 0.727 |
| GGCCGGCAUGGUCCCAGCCUCCUCGCUGGCGCCGGCUGGGCAACAAUCCGAGGGGACCGUCCCCUCGGUAAUGGCGAAUGGGACCUA | 0.594 |
| GGCCGGCAUGGUCCCAGCCUCCUCGCUGGCGCCGGCUGGGCAACAAUCCAAGGGGACCGUCCCCUCGGUAAUGGCGAAUGGGACCCA | 0.658 |
| GGCCGGCAUGGUCCCAGCCUCCUCGCUGGCGCCGGCUGGGCAACAAUCCGAGGAGACCGUCCCCUCGGUAAUGGCGAAUGGGACCCA | 0.763 |
| GGCCGGCAUGGUCCCAGCCUCCUCGCUGGCGCCGGCUGGGCAACAAUCCGAGGGCACCGUCCCCUCGGUAAUGGCGAAUGGGACCCA | 0.682 |
| GGCCGGCAUGGUCCCAGCCUCCUCGCUGGCGCCGGCUGGGCAACAAUCCGAGGGUACCGUCCCCUCGGUAAUGGCGAAUGGGACCCA | 0.85 |
| GGCCGGCAUGGUCCCAGCCUCCUCGCUGGCGCCGGCUGGGCAACAAUCCGAGGGGACCGUCCCCUCUGUAAUGGCGAAUGGGACCCA | 0.789 |
| GGCCGGCAUGGUCCCAGCCUCCUCGCUGGCGCCGGCUGGGCAACAAUCCGAGGGGACCGUCCCCUCGGUAAUAGCGAAUGGGACCCA | 0.554 |

| Variant | self-cleavage |
| --- | --- |
| GGCCGGCAUGGUCCCAGCCUCCUCGCUGGCGCCGGCUGGGCAACAAUCCGAGGGGACCGUCCCCUCGGUAAUCGCGAAUGGGACCCA | 0.317 |
| GGCCGGCAUGGUCCCAGCCUCCUCGCUGGCGCCGGCUGGGCAACAAUCCGAGGGGACCGUCCCCUCGGUAAUGUCGAAUGGGACCCA | 0.305 |
| GGCCGGCAUGGUCCCAGCCUCCUCGCUGGCGCCGGCUGGGCAACAAUCCGAGGGGACCGUCCCCUCGGUAAUGGCCAAUGGGACCCA | 0.665 |
| GGCCGGCAUGGUCCCAGCCUCCUCGCUGGCGCCGGCUGGGCAACAAUCCGAGGGGACCGUCCCCUCGGUAAUGGCGAAUAGGACCCA | 0.147 |
| GGCCGGCAUGGUCCCAGCCUCCUCGCUGGCGCCGGCUGGGCAACAAUCCGAGGGGACCGUCCCCUCGGUAAUGGCGAAUUGGACCCA | 0.176 |
| GGCCGGCAUGGUCCCAGCCUCCUCGCUGGCGCCGGCUGGGCAACAAUCCGAGGGGACCGUCCCCUCGGUAAUGGCGAAUGCGACCCA | 0.312 |
| GGCCGGCAUGGUCCCAGCCUCCUCGCUGGCGCCGGCUGGGCAACAAUCCGAGGGGACCGUCCCCUCGGUAAUGGCGAAUGGCACCCA | 0 |
| GGCCGGCAUGGUCCCAGCCUCCUCGCUGGCGCCGGCUGGGCAACACUCCGAGGGGCCCGUCCCCUCGGUAAUGGCGAAUGGGACCCA | 0.609 |
| GGCCGGCAUGGUCCCAGCCUCCUCGCUGGCGCCGGCUGGGCAACACUCCGAGGGGACCGUCCCCUCGGUGAUGGCGAAUGGGACCCA | 1.03 |
| GGCCGGCAUGGUCCCAGCCUCCUCGCUGGCGCCGGCUGGGCAACACUCCGAGGGGACCGUCCCCUCGGUAAUGGCGACUGGGACCCA | 0.0426 |
| GGCCGGCAUGGUCCCAGCCUCCUCGCUGGCGCCGGCUGGGCAACACUCCGAGGGGACCGUCCCCUCGGUAAUGGCGAGUGGGACCCA | 0.554 |
| GGCCGGCAUGGUCCCAGCCUCCUCGCUGGCGCCGGCUGGGCAACACUCCGAGGGGACCGUCCCCUCGGUAAUGGCGAAUGGGCCCCA | 0.237 |
| GGCCGGCAUGGUCCCAGCCUCCUCGCUGGCGCCGGCUGGGCAACACUACGAGGGGACCGUCCCCUCGGUAAUGGCGAAUGGGACCCA | 0.89 |
| GGCCGGCAUGGUCCCAGCCUCCUCGCUGGCGCCGGCUGGGCAACACUGCGAGGGGACCGUCCCCUCGGUAAUGGCGAAUGGGACCCA | 1.18 |
| GGCCGGCAUGGUCCCAGCCUCCUCGCUGGCGCCGGCUGGGCAACACUCCGAGGGGAGCGUCCCCUCGGUAAUGGCGAAUGGGACCCA | 1.04 |
| GGCCGGCAUGGUCCCAGCCUCCUCGCUGGCGCCGGCUGGGCAACACUCCGAGGGGACGGUCCCCUCGGUAAUGGCGAAUGGGACCCA | 0.582 |
| GGCCGGCAUGGUCCCAGCCUCCUCGCUGGCGCCGGCUGGGCAACACUCCGAGGGGACCGUCGCCUCGGUAAUGGCGAAUGGGACCCA | 0.249 |
| GGCCGGCAUGGUCCCAGCCUCCUCGCUGGCGCCGGCUGGGCAACACUCCGAGGGGACCGUCCGCUCGGUAAUGGCGAAUGGGACCCA | 0.72 |
| GGCCGGCAUGGUCCCAGCCUCCUCGCUGGCGCCGGCUGGGCAACACUCCGAGGGGACCGUCCCCUAGGUAAUGGCGAAUGGGACCCA | 0.849 |
| GGCCGGCAUGGUCCCAGCCUCCUCGCUGGCGCCGGCUGGGCAACACUCCGAGGGGACCGUCCCCUCGGUAAUGGAGAAUGGGACCCA | 0.0536 |
